Source: US20120201781A1 (AbbVie / Abbott, published 2012)

T1: recombinant human IL-1α (human, UniProt P01583 113-271)
T1 construct: Purified recombinant protein bought from R&D Systems; also called hIL-1α; rhIL-1α
T1 sequence: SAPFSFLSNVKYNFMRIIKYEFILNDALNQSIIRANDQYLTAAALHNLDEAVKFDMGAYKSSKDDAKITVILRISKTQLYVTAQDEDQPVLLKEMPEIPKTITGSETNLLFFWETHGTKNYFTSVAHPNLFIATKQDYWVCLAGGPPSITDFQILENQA


Columns and labels:
recombinant human IL-1β [1] = molecular target: T2, recombinant human IL-1β (human, UniProt P01584 117-269); experiment: SPR (Biacore)
T2 construct: Recombinant protein; also called hIL-1β; rhIL-1β

recombinant human IL-1α [2] = molecular target: T1, recombinant human IL-1α; experiment: SPR (Biacore)
recombinant human IL-1α [3] = molecular target: T1, recombinant human IL-1α; experiment: cell-based or functional assay
recombinant human IL-1β [4] = molecular target: T2, recombinant human IL-1β; experiment: cell-based or functional assay
recombinant human IL-1β [5] = molecular target: T2, recombinant human IL-1β; experiment: SPR (Biacore), mAb captured via goat anti-mouse IgG
recombinant human IL-1β [6] = molecular target: T2, recombinant human IL-1β; experiment: cell-based or functional assay; remark: listed apart in the source

| Binder | Kd (recombinant human IL-1β [1]) | Kd (recombinant human IL-1α [2]) | Potency (IC50) M, MRC-5 bioassay (recombinant human IL-1α [3]) | Potency (IC50) M, MRC-5 bioassay (recombinant human IL-1β [4]) | Kd (recombinant human IL-1β [5]) | IC50 (M), MRC-5 bioassay (recombinant human IL-1β [4]) | IC50 (M), MRC-5 bioassay (inhibition of IL-8 production) (recombinant human IL-1β [6]) |
| --- | --- | --- | --- | --- | --- | --- | --- |
| hIL-1α/β DVD3a-Ig (bispecific antibody, human IgG1, kappa, 18F4.2C8 (outer) - short linker - 1B12.4H4 (inner), a-b-C orientation) heavy: not shown light: DIVMTQSQRFMSTSVGDRVSVTCKASQNVGTNIAWYQQKPGQSPRALIYSASYRYSGVPDRFTGSGSGTDFTLTISNVQSVDLAEYFCQQYTRYPLTFGGGTKLEIKRTVAAPETTVTQSPASLSMAIGEKVTIRCITSTDIDVDMNWYQQKPGEPPKLLISQGNTLRPGVPSRFSSSGSGTDFVFIIENMLSEDVADYYCLQSDNLPLTFGAGTKLELKRRTVAAPSVFIFPPSDEQLKSGTASVVCLLNNFYPREAKVQWKVDNALQSGNSQESVTEQDSKDSTYSLSSTLTLSKADYEKHKVYACEVTHQGLSSPVTKSFNRGEC | 63.7 nM | 0.837 nM | 0.75 nM | – | – | – | – |
| hIL-1α/β DVD5a-Ig (bispecific antibody, human IgG1, kappa, 6H3.1A4.3E11 (outer) - short linker - 6B12.4F6 (inner), a-b-C orientation) heavy: not shown light: QIVLTQSPALMSASPGEKVTMTCSASSSVNYMYWYQQKPRSSPKPWIYLTSNLASGVPARFSGSGSGTSYSLTISSMEAEDAATYYCQQWNSNPYTFGGGTKLEMKRTVAAPQIVLTQSPAIMSASPGEKVTITCSASSSVSYMHWFQQKPGASPKLWIYSTSNLASGVPARFSGSGSGTSYSLTVSRMEAEDAATYYCQQRSTYPYTFGGGTKLEIKRTVAAPSVFIFPPSDEQLKSGTASVVCLLNNFYPREAKVQWKVDNALQSGNSQESVTEQDSKDSTYSLSSTLTLSKADYEKHKVYACEVTHQGLSSPVTKSFNRGEC | 12.5 nM | 0.508 nM | 2.6 nM | 19 nM | – | – | – |
| hIL-1α/β DVD3b-Ig (bispecific antibody, human IgG1, kappa, 1B12.4H4 (outer) - short linker - 18F4.2C8 (inner), b-a-C orientation) heavy: not shown light: ETTVTQSPASLSMAIGEKVTIRCITSTDIDVDMNWYQQKPGEPPKLLISQGNTLRPGVPSRFSSSGSGTDFVFIIENMLSEDVADYYCLQSDNLPLTFGAGTKLELKRTVAAPDIVMTQSQRFMSTSVGDRVSVTCKASQNVGTNIAWYQQKPGQSPRALIYSASYRYSGVPDRFTGSGSGTDFTLTISNVQSVDLAEYFCQQYTRYPLTFGGGTKLEIKRTVAAPSVFIFPPSDEQLKSGTASVVCLLNNFYPREAKVQWKVDNALQSGNSQESVTEQDSKDSTYSLSSTLTLSKADYEKHKVYACEVTHQGLSSPVTKSFNRGEC | 0.19 nM | 1.24 nM | 0.7 nM | 0.4 nM | – | – | – |
| hIL-1α/β DVD5b-Ig (bispecific antibody, human IgG1, kappa, 6B12.4F6 (outer) - short linker - 6H3.1A4.3E11 (inner), b-a-C orientation) heavy: not shown light: QIVLTQSPAIMSASPGEKVTITCSASSSVSYMHWFQQKPGASPKLWIYSTSNLASGVPARFSGSGSGTSYSLTVSRMEAEDAATYYCQQRSTYPYTFGGGTKLEIKRTVAAPQIVLTQSPALMSASPGEKVTMTCSASSSVNYMYWYQQKPRSSPKPWIYLTSNLASGVPARFSGSGSGTSYSLTISSMEAEDAATYYCQQWNSNPYTFGGGTKLEMKRTVAAPSVFIFPPSDEQLKSGTASVVCLLNNFYPREAKVQWKVDNALQSGNSQESVTEQDSKDSTYSLSSTLTLSKADYEKHKVYACEVTHQGLSSPVTKSFNRGEC | 0.671 nM | 13.2 nM | 3.3 nM | 0.25 nM | – | – | – |
| hIL-1α/β DVD4a-Ig (bispecific antibody, human IgG1, kappa, 18F4.2C8 (outer) - long linker - 1B12.4H4 (inner), a-b-C orientation) heavy: not shown light: DIVMTQSQRFMSTSVGDRVSVTCKASQNVGTNIAWYQQKPGQSPRALIYSASYRYSGVPDRFTGSGSGTDFTLTISNVQSVDLAEYFCQQYTRYPLTFGGGTKLEIKRTVAAPSVFIFPPETTVTQSPASLSMAIGEKVTIRCITSTDIDVDMNWYQQKPGEPPKLLISQGNTLRPGVPSRFSSSGSGTDFVFIIENMLSEDVADYYCLQSDNLPLTFGAGTKLELKRTVAAPSVFIFPPSDEQLKSGTASVVCLLNNFYPREAKVQWKVDNALQSGNSQESVTEQDSKDSTYSLSSTLTLSKADYEKHKVYACEVTHQGLSSPVTKSFNRGEC | 0.93 nM | 0.701 nM | 0.35 nM | 10 nM | – | – | – |
| hIL-1α/β DVD4b-Ig (bispecific antibody, human IgG1, kappa, 1B12.4H4 (outer) - long linker - 18F4.2C8 (inner), b-a-C orientation) heavy: not shown light: ETTVTQSPASLSMAIGEKVTIRCITSTDIDVDMNWYQQKPGEPPKLLISQGNTLRPGVPSRFSSSGSGTDFVFIIENMLSEDVADYYCLQSDNLPLTFGAGTKLELKRTVAAPSVFIFPPDIVMTQSQRFMSTSVGDRVSVTCKASQNVGTNIAWYQQKPGQSPRALIYSASYRYSGVPDRFTGSGSGTDFTLTISNVQSVDLAEYFCQQYTRYPLTFGGGTKLEIKRTVAAPSVFIFPPSDEQLKSGTASVVCLLNNFYPREAKVQWKVDNALQSGNSQESVTEQDSKDSTYSLSSTLTLSKADYEKHKVYACEVTHQGLSSPVTKSFNRGEC | 0.128 nM | 0.56 nM | 0.35 nM | 0.5 nM | – | – | – |

Other lines, results leading:

| Kd (recombinant human IL-1β [1]) | Kd (recombinant human IL-1α [2]) | Potency (IC50) M, MRC-5 bioassay (recombinant human IL-1α [3]) | Potency (IC50) M, MRC-5 bioassay (recombinant human IL-1β [4]) | Kd (recombinant human IL-1β [5]) | IC50 (M), MRC-5 bioassay (recombinant human IL-1β [4]) | IC50 (M), MRC-5 bioassay (inhibition of IL-8 production) (recombinant human IL-1β [6]) | Binder |
| --- | --- | --- | --- | --- | --- | --- | --- |
| 0.554 nM | – | – | – | 0.554 nM | 4e-10 M | 3.2e-10 M | murine monoclonal antibody 6B12.4F6 (antibody, V domains shown, Murine hybridoma mAb, anti-hIL-1β) VH: EVQLQQSGPELVKTGTSVKISCKASGYSFTGYYMHWVRQSHGKSLEWIGYISCYNGFTSYNPKFKGKATFTVDTSSSTAYIQFSRLTSEDSAVYYCARSDYYGTNDYWGQGTTLTVSS VL: QIVLTQSPAIMSASPGEKVTITCSASSSVSYMHWFQQKPGASPKLWIYSTSNLASGVPARFSGSGSGTSYSLTVSRMEAEDAATYYCQQRSTYPYTFGGGTKLEIKR |
| 2.09 nM | 1.06 nM | 2.3 nM | 70 nM | – | – | – | hIL-1α/β DVD6a-Ig (bispecific antibody, human IgG1, kappa, 6H3.1A4.3E11 (outer) - long linker - 6B12.4F6 (inner), a-b-C orientation) heavy: not shown light: QIVLTQSPALMSASPGEKVTMTCSASSSVNYMYWYQQKPRSSPKPWIYLTSNLASGVPARFSGSGSGTSYSLTISSMEAEDAATYYCQQWNSNPYTFGGGTKLEMKRTVAAPSVFIFPPQIVLTQSPAIMSASPGEKVTITCSASSSVSYMHWFQQKPGASPKLWIYSTSNLASGVPARFSGSGSGTSYSLTVSRMEAEDAATYYCQQRSTYPYTFGGGTKLEIKRRTVAAPSVFIFPPSDEQLKSGTASVVCLLNNFYPREAKVQWKVDNALQSGNSQESVTEQDSKDSTYSLSSTLTLSKADYEKHKVYACEVTHQGLSSPVTKSFNRGEC |
| 0.697 nM | 0.82 nM | 1 nM | 0.75 nM | – | – | – | hIL-1α/β DVD6b-Ig (bispecific antibody, human IgG1, kappa, 6B12.4F6 (outer) - long linker - 6H3.1A4.3E11 (inner), b-a-C orientation) heavy: not shown light: QIVLTQSPAIMSASPGEKVTITCSASSSVSYMHWFQQKPGASPKLWIYSTSNLASGVPARFSGSGSGTSYSLTVSRMEAEDAATYYCQQRSTYPYTFGGGTKLEIKRTVAAPSVFIFPPQIVLTQSPALMSASPGEKVTMTCSASSSVNYMYWYQQKPRSSPKPWIYLTSNLASGVPARFSGSGSGTSYSLTISSMEAEDAATYYCQQWNSNPYTFGGGTKLEMKRRTVAAPSVFIFPPSDEQLKSGTASVVCLLNNFYPREAKVQWKVDNALQSGNSQESVTEQDSKDSTYSLSSTLTLSKADYEKHKVYACEVTHQGLSSPVTKSFNRGEC |
| 0.261 nM | – | – | – | 0.213 nM | 6e-10 M | 5.3e-10 M | murine monoclonal antibody 1B12.4H4 (antibody, V domains shown, Murine hybridoma mAb, anti-hIL-1β) VH: QVHLKESGPGLVAPSQSLSITCTVSGFSLTDYGVSWIRQPPGKGLEWLGLIWGGGDTYYNSPLKSRLSIRKDNSKSQVFLKMNSLQTDDTAVYYCAKQRTLWGYDLYGMDYWGQGTSVTVSS VL: ETTVTQSPASLSMAIGEKVTIRCITSTDIDVDMNWYQQKPGEPPKLLISQGNTLRPGVPSRFSSSGSGTDFVFIIENMLSEDVADYYCLQSDNLPLTFGAGTKLELKR |
